Reference: patent publication US20230303685A1 (ELECTRA THERAPEUTICS, published 2023)

B1: Antibody 23 (antibody, V domains shown)
VH: QVQLQESGPGLVKPSGTLSLTCAVSGGSISSSNWWSWVRQPPGKGLEWIGEIYHSGSTNYNPSLKSRVTISVDKSKNQFSLKLSSVTAADTAVYYCARRGIWFGVGPWGQGTLVTVSS
VL: DIVMTQSPLSLPVTPGEPASISCRSSQSLLHGNGFNYLDWYLQKPGQSPQLLIYLGSNRASGVPDRFTGSGSGTDFTLKISRVEAEDVGVYYCMQGLQTPRTFGQGTKVEIK
notes: Variable regions of Antibody 1
B2: Antibody 14 (antibody, V domains shown)
VH: QVQLVESGGGVVQPGRSLRLSCVASGFIFSNYGMHWVRQAPGKGLEWVAVISYDGRNEDHVDSVKGRFTISRDNSKNTLYLQMNSLRAEDTAVYYCAKGSGSYYFDYWGQGTLVTVSS
VL: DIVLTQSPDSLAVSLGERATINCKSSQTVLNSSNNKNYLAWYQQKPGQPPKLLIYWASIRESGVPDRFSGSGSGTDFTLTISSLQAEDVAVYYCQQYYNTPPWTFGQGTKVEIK
notes: Human variable region, rat IgG2b Fc; from hybridoma
B3: Antibody 9 (antibody, V domains shown)
VH: QVQLQQWGAGLLKPSETLSLTCAVYGGSFSTYYWNWIRQPPGKGLEWIGEINHSGSTNYNPSLKSRVIISVDTSKNQFSLKLSSVTAADTAVYYCASSHYGSGSFPDSYGMDVWGQGTTVTVSA
VL: SYELTQSPSVSVSPGQTASITCSGDKLGDRYAWWYQQKPGQSPVLVIYQDDKRPSGIPERFSGSNSGNTATLTISGTQAMDEADYYCQAWDSSTAVFGGGTKLTVL
notes: as for B2
B4: Antibody 10 (antibody, V domains shown)
VH: EVQLLESGGGLVQPGGSLRLSCAASGFTFSSYAMSWVRQAPGKGLEWVSAISGSGGDTYYADSVKGRFTISRDNSKSTLYLQMNSLRAEDTAVYYCAKDGGSYYPPFDYWGQGTLVTVSS
VL: SYELTQPPSVSVSPGQTASITCSGDKLGDRYACWYQQKPGQSPVLVIYQDTKRPSGIPERFSGSNSGNTATLTISGTQAMDEADYYCQACDSSTAVFGGGTKLTVL
notes: as for B2
B5: Antibody 24 (antibody, V domains shown)
VH: QVQLQESGPGLVKPSGTLSLTCAVSGGSISSSNWWSWVRQPPGKGLEWIGEIYHSGNTNYNPSLKSRVTISVDKSKNQFSLKLSSVTAADTAVYYCAREGIEGYYFYYGMDVWGQGTTVTVSS
VL: DIQLTQSPSFLSASVGDRVTITCRASQGISGYLDWYQQKPGKAPKLLIYAASTLQRGVPSRFSGSGSGTDFNLTISSLQPEDFATYYCQQFTSDLITFGQGTRLEIK
notes: Variable regions of Antibody 3

How the values were obtained:
[1] = biological target: T1, human SIRPα V1 extracellular domain, monomeric (human, UniProt P78324 31-373); assay: SPR (Biacore); antibody captured by anti-IgG on chip, monomeric SIRPα extracellular domain as analyte, 1:1 model
T1 construct: also called hSIRPα V1
Experimental: (§1) Selected antibodies were tested for their affinities to two hSIRPα variants (V1 and V2), and to cynomolgus monkey (herein referred to as “cyno”) SIRPα. The affinities of these SIRP antibodies were determined using surface plasmon resonance. The SIRP antibodies were flowed onto a chip and captured by an anti-mouse IgG or an anti-human IgG covalently coupled to the surface of the chip. A three-point titration of the extracellular binding domain of hSIRPα was performed per the manufacturer's recommended protocols.

[2] = biological target: T2, cynomolgus monkey SIRPα extracellular domain, monomeric (cynomolgus monkey, UniProt A0A2K5VYQ9 31-372); assay: as above
T2 construct: extracellular domain; also called Cyno SIRPα
Experimental: as §1

[3] = biological target: T3, human SIRPα V2 extracellular domain, monomeric (human, UniProt P78324 31-370); assay: as above
T3 construct: also called hSIRPα V2
Experimental: as §1

[4] = biological target: T4, Human SIRPγ; assay: ELISA, extracellular domain coated at 1 µg/mL, purified antibody titrated, anti-human IgG, chemiluminescence
T4 construct: also called human SIRPγ extracellular domain, plate-coated
T4 chain: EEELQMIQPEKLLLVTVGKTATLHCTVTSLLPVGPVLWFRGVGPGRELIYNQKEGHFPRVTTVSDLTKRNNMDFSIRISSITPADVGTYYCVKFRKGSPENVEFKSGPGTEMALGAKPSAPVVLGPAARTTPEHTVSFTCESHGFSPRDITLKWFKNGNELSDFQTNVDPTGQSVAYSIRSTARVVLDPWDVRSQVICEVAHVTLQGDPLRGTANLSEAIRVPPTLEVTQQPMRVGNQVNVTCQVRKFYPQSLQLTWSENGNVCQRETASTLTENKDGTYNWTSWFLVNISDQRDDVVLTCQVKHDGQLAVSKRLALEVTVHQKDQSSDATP
Experimental: (§2) Select SIRP antibodies were purified by Protein G from hybridoma supernatants and analyzed in a titration via ELISA. Briefly, 1 μg/mL of extracellular domain SIRPα was coated onto high protein-binding plates and blocked. Purified antibodies were added in a titration to the coated plates. The antibodies were detected by an anti-rat IgG antibody and a chemiluminescent substrate.
FIGS. 3A-3C show binding curves of SIRP antibodies and two isotype controls with human Fc to human SIRPα V1, human SIRPβ1, human SIRPγ and cynomolgus monkey SIRPα by ELISA. […] Isotype control 1 was an unrelated human IgG1 antibody with irrelevant CDRs. Isotype control 2 was the same as isotype control 1 but contained the same amino acid substitutions in the Fc region as some of the selected SIRP antibodies for increased FcγR binding (referring to Table 11). DNA was transiently transfected into CHO cells for 7 days. Antibodies were purified by Protein A from cell supernatants and analyzed in a titration via ELISA as previously described in FIGS. 2A-2B using an anti-human IgG antibody as the detection antibody.

[5] = biological target: T5, Human SIRPγ CHO; assay: flow cytometry, stably transfected CHO cells, antibody titrated, labelled anti-rat or anti-mouse IgG, MFI
T5 construct: also called human SIRPγ on CHO cells
T5 chain: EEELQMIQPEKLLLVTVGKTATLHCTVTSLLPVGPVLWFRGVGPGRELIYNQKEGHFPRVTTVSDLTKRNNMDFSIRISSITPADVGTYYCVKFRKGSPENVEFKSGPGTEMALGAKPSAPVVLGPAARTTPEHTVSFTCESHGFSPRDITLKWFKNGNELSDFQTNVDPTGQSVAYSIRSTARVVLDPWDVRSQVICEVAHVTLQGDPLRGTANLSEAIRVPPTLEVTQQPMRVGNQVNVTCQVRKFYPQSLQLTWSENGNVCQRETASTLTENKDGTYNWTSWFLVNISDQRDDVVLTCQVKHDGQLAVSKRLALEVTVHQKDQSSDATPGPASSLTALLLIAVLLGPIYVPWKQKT
Experimental: Selected antibodies were tested for binding to stably transfected human SIRPα, SIRPβ1 (co-transfected with DAP12), or SIRPγ Chinese hamster ovary (CHO) cells via flow cytometry. A titration of SIRP antibodies was added to the cells and detected using a fluorescently labelled secondary antibody. Graph depicts the median fluorescence intensity (MFI) at each concentration.

[6] = biological target: T6, Human SIRPγ conjugated to an Fc region (human); assay: BLI blocking; 200 nM antibody pre-incubated with 20 nM SIRPγ-Fc, binding to immobilised CD47-His (competitor), % of response of SIRPγ-Fc alone
T6 construct: also called SIRPγ-Fc; SIRP-Fc; not shown: Fc region

[7] = biological target: T7, human SIRPγ-His monomer (human); assay: BLI (Octet); antibody on anti-mouse IgG capture tip, SIRP-His monomer at 100, 33.3, 11.1 nM, 1:1 fit, mean KD
T7 construct: 'SIRP-His monomer protein' of the Octet assay; also called SIRP-His; not shown: His tag
Experimental: (§3) Select SIRP antibodies were tested for their affinities to human SIRPα, SIRPβ1, and SIRPγ using a biolayer interferometry (BLI) Octet system (Pall ForteBio). Each SIRP antibody with rat or mouse Fc was immobilized on a biosensor tip by an anti-mouse IgG capture (AMC). Antibodies with human Fc were digested with gingipain K enzyme to yield monomeric F(ab′), biotinylated, then coated onto streptavidin biosensors. […] The biosensors were then exposed to wash buffer to measure off-rate kinetics. The resulting kinetic data were analyzed and fitted using a 1:1 binding model with kₒₙ and kdis fitted separately at each SIRP-His protein concentration. KD affinities were calculated as kdis to kₒₙ ratio at each concentration of SIRP-His and averaged.

[8] = biological target: T8, Cynomolgus Monkey SIRPγ (Macaca fascicularis); assay: ELISA, extracellular domain coated at 2 µg/mL, purified antibody titrated, anti-rat or anti-mouse IgG, chemiluminescence
T8 construct: extracellular domain; also called cyno SIRPγ extracellular domain, plate-coated
Experimental: as §2, with “2” for “1”, “of each of the SIRPs” for “SIRPα”, “IgG or an anti-mouse IgG” for “IgG”

[9] = biological target: T4, Human SIRPγ; assay: as above
Experimental: as §2, with “2” for “1”, “of each of the SIRPs” for “SIRPα”, “IgG or an anti-mouse IgG” for “IgG”

[10] = biological target: T9, human SIRPα V1-His monomer (human, UniProt P78324 31-373, limits assumed); assay: BLI (Octet); antibody on anti-mouse IgG capture tip, SIRP-His monomer at 100, 33.3, 11.1 nM, 1:1 fit, mean KD
T9 construct: 'SIRP-His monomer protein' of the Octet assay; also called SIRP-His; not shown: His tag
Experimental: as §3

Row | Binder | Kd [1] | Kd [2] | Kd [3] | EC50 (read off the curve) [4] | binding result [5] | SIRPγ-CD47 Response (%) [6] | Kd [7] | EC50 (read off the curve) [8] | EC50 (read off the curve) [9] | Kd [10] | binding result [9]
1 | B1 | 323 nM | 384 nM | 374 nM | ~0.04 µg/mL | – | – | – | – | – | – | –
2 | B2 | – | – | – | – | binds | 14.4% | 38.7 nM | ~0.09 µg/mL | ~0.05 µg/mL | – | –
3 | B3 | – | – | – | – | binds | – | – | – | – | 1.24 nM | binds
4 | B4 | – | – | – | – | binds | -4.29% | 1.37 nM | – | – | 57.6 nM | binds
5 | B5 | 2.89 nM | 15 nM | 22.6 nM | ~0.02 µg/mL | – | -37.9% | – | – | – | – | –
